Assay results as given in paper PMC5645467, “Three-dimensional context rather than NLS amino acid sequence determines importin α subtype specificity for RCC1” (Nature Communications, 2017).
Each block holds one binder with its values, some of them ahead of it.

What was measured:
[1] = target: ΔIBB-importin α3 (as used for ITC) (human, UniProt O00629 1-521, Limits not given; taken from the ΔIBB-importin α3 entity of PDB 4UAE (Met + 420 residues, starting VQNTS), which fits the expected complex MW of ~91.2 kDa. A construct running to 521 is possible.); test: ITC; nano-ITC, 20 °C; GST-RCC1 (300 µM) injected in 2.0 µl increments into 195 µl of ΔIBB-importin α3 or α1 (100 µM); 20 mM Tris-HCl pH 8.0, 150 mM NaCl, 5 mM BME, 0.1 mM PMSF; single set of binding sites model; triplicate; settings: both partners purified
Sequence of ΔIBB-importin α3 (as used for ITC) (O00629 68-487, stated change not applied): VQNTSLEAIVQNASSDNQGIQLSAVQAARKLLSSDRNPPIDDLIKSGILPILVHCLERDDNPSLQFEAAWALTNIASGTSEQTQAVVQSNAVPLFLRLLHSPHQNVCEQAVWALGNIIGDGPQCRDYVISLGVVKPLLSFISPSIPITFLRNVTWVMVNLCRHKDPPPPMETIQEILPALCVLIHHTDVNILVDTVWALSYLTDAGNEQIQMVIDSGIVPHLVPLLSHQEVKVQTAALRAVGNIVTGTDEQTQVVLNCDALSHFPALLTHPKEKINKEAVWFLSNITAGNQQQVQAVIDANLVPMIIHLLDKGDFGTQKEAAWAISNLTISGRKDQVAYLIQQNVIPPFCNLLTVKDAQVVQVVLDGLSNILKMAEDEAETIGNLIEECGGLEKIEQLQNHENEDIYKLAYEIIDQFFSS

[2] = target: untagged ΔIBB-importin α3 (co-expressed with GST-RCC1) (human, UniProt O00629 1-521, Limits not given; taken from the ΔIBB-importin α3 entity of PDB 4UAE, which fits the expected complex MW of ~91.2 kDa. The 5TBK entity lists the full-length sequence although the IBB was deleted.); test: SAXS; purified importin α3:RCC1 complex in GF buffer, 3.5–7.5 mg ml^-1, physiological salt; settings: both partners purified
Sequence of untagged ΔIBB-importin α3 (co-expressed with GST-RCC1) (O00629 68-487, stated change not applied): as above

stoichiometry N [1]: < 1
B1: GST-RCC1 (full-length human RCC1, wild type) (natural protein, UniProt P18754 1-421, looked up)
chain: MSPKRIAKRRSPPADAIPKSKKVKVSHRSHSTEPGLVLTLGQGDVGQLGLGENVMERKKPALVSIPEDVVQAEAGGMHTVCLSKSGQVYSFGCNDEGALGRDTSVEGSEMVPGKVELQEKVVQVSAGDSHTAALTDDGRVFLWGSFRDNNGVIGLLEPMKKSMVPVQVQLDVPVVKVASGNDHLVMLTADGDLYTLGCGEQGQLGRVPELFANRGGRQGLERLLVPKCVMLKSRGSRGHVRFQDAFCGAYFTFAISHEGHVYGFGLSNYHQLGTPGTESCFIPQNLTSFKNSTKSWVGFSGGQHHTVCMDSEGKAYSLGRAEYGRLGLGEGAEEKSIPTLISRLPAVSSVACGASVGYAVTKDGRVFAWGMGTNYQLGTGQDEDAWSPVEMMGKQLENRVVLSVSSGGQHTVLLVKDKEQS
notes: human RCC1, predominant isoform RCC1α, synthetic gene (GenScript); β-propeller printed as residues 30–421; Used in the syringe for ITC (methods say GST-RCC1); also called full length GST-RCC1; WT GST-RCC1; source: E. coli BL21(DE3) AI or BL21(DE3), pGEX-6P, glutathione resin; not shown: GST, N-terminal, kept

stoichiometry N [2]: 1
B2: RCC1 (human, cleaved from GST, in the purified importin α3:RCC1 complex) (natural protein, UniProt P18754 1-421, looked up)
chain: B1 chain
notes: human RCC1, predominant isoform RCC1α, synthetic gene; also called RCC1α; human RCC1; source: E. coli BL21-AI, co-expressed with ΔIBB-importin α3, cleaved off glutathione beads with PreScission Protease, SEC; not shown: GST, N-terminal, cleaved
